Results published in IntAct's records for PubMed 17909014.

Columns and labels:
[1] = target: ajuba_mouse Ajuba (UniProt Q91XC0)
[2] = target: limd1_mouse Limd1 (UniProt Q9QXD8)
limd1_mouse Limd1, sequence (Q9QXD8 whole entry): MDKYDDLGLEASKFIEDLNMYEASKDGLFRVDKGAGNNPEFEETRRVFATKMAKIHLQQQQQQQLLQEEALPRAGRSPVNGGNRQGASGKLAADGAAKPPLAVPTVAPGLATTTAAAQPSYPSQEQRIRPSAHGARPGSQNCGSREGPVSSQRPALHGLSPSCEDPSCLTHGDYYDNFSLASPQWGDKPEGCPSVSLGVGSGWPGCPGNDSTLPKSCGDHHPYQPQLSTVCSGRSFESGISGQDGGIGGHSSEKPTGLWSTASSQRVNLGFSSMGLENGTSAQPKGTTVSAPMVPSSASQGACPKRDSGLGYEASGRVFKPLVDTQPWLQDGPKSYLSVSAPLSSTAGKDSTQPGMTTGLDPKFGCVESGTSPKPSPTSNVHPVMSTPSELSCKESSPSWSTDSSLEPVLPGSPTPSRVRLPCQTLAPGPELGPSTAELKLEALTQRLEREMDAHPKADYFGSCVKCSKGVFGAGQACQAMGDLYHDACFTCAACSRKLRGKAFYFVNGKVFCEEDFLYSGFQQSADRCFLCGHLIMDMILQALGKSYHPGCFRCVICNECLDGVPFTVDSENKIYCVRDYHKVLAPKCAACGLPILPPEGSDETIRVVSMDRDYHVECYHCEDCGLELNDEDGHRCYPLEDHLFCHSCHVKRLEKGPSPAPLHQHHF

effect of a mutation on the interaction [1] | effect of a mutation on the interaction [2] | Substance
disrupting interaction | disrupting interaction | Zinc finger protein Gfi-1 (Homo sapiens), Q99684 K10A;K11A
disrupting interaction | disrupting interaction | Zinc finger protein Gfi-1 (Homo sapiens), Q99684 F5A;L6A;V7A
disrupting interaction | disrupting interaction | Zinc finger protein Gfi-1 (Homo sapiens), Q99684 F5A
